# Measurements taken from patent US20040229237.
# Tested on: mouse MIST (Mast Cell-specific Immunoreceptor Signal Transducer)
substance,measurement,value
Lyn kinase,tyrosine phosphorylation of MIST,MIST was evidently phosphorylated by Lyn kinase among tyrosine kinases present in the mast cell
